± gives the uncertainty stated by the source.

The series is described as follows: self-splicing fitness, log relative to wild type (ln ratio); higher = more splicing; Tetrahymena group I intron in knt gene, E. coli kanamycin selection, DiMSum; sequences stand for … in CUCUCU…GGAGGGAAAAGUUAUCAGGCAUGCACCUGGUAGCUAGUCUUUAAACCAAUAGAUUGCAUCGGUUUAAAAGGCAAGACCGUCAAAUUGCGGGAAAGGGGUCAACAGCCGUUCAGUACCAAGUCUCAGGGGAAACUUUGAGAUGGCCUUGCAAAGGGUAUGGUAAUAAGCUGACGGACAUGGUCCUAACCACGCAGCCAAGUCCUAAGUCAACAGAUCUUCUGUUGAUAUGGAUGCAGUUCACAGACUAAAUGUCGGUCGGGGAAGAUGUAUUCUUCUCAUAAGAUAUAGUCGGACCUCUCCUUAAUGGGAGCUAGCGGAUGAAGUGAUGCAACACUGGAGCCGCUGGGAACUAAUUUGUAUGCGAAAGUAUAUUGAUUAGUUUUGGAGUACUCGUGGUCG
In outline: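 DiMSum derived fitness as the error-weighted combination of fold changes across replicates, kanamycin versus no kanamycin, normalised to wild type. E. coli BL21(DE3) held the library, which randomised all eight P1ex-region intron nucleotides within the knt kanamycin-resistance gene on pET-22b(+). Six replicate transformations grew overnight at 37°C or 30°C on LB agar with or without 25 μg/mL kanamycin, also containing 100 μg/mL carbenicillin, 50 μM IPTG and 0.2% rhamnose, and pooled colonies were amplicon-sequenced on an Illumina HiSeq 2500.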

For the sequence UGACAGCAAUAUUACGUUUA, the “self-splicing fitness (ln)” value is -0.565 ± 0.061 (30 °C) and -0.556 ± 0.07 (37 °C).

On to ACAUAGCAAUAUUACGGUAG, for which the “self-splicing fitness (ln)” value (30 °C) was -4.45 ± 0.42 and the “self-splicing fitness (ln)” value (37 °C) is -2.89 ± 0.32.

In the case of ACCUAGCAAUAUUACGUAGG, the “self-splicing fitness (ln)” value was -3.59 ± 0.2 (30 °C) and -2.93 ± 0.21 (37 °C).

UGAGAGCAAUAUUACGCAAG: the “self-splicing fitness (ln)” value is, setting by setting: (30 °C) -3.21 ± 0.32; (37 °C) -2.74 ± 0.44.

Take AGCAAGCAAUAUUACGAAUU: the “self-splicing fitness (ln)” value is -2.55 ± 0.08 (30 °C) and -1.68 ± 0.09 (37 °C).

As for GGGCAGCAAUAUUACGUGUC, the “self-splicing fitness (ln)” value reads like this: (30 °C) -3.82 ± 0.17; (37 °C) -2.53 ± 0.2.

For AUUUAGCAAUAUUACGGAAU, the “self-splicing fitness (ln)” value (30 °C) was -2.62 ± 0.28 and the “self-splicing fitness (ln)” value (37 °C) is -2.49 ± 0.26.

Regarding GUAUAGCAAUAUUACGGUUA, the “self-splicing fitness (ln)” value by setting is: (30 °C) -1.28 ± 0.11; (37 °C) -0.761 ± 0.098.

Regarding GCUCAGCAAUAUUACGGGUG, the “self-splicing fitness (ln)” value runs as follows: (30 °C) -0.435 ± 0.055; (37 °C) -0.211 ± 0.074.

Regarding UGUCAGCAAUAUUACGGUGU, the “self-splicing fitness (ln)” value (30 °C) is -2.06 ± 0.084 and the “self-splicing fitness (ln)” value (37 °C) was -1.13 ± 0.1.

With UUGAAGCAAUAUUACGGGGC, the “self-splicing fitness (ln)” value was -3.3 ± 0.2 (30 °C) and -2.74 ± 0.3 (37 °C).

CCAUAGCAAUAUUACGCCUC: the “self-splicing fitness (ln)” value is, setting by setting: (30 °C) -3.21 ± 0.4; (37 °C) -1.74 ± 0.29.

On to UGCAAGCAAUAUUACGUUAG, for which the “self-splicing fitness (ln)” value was -2.79 ± 0.14 (30 °C) and -2.02 ± 0.15 (37 °C).

With AUGUAGCAAUAUUACGGCCG, the “self-splicing fitness (ln)” value reads like this: (30 °C) -2.32 ± 0.31; (37 °C) -0.303 ± 0.33.

With AAAGAGCAAUAUUACGUACA, the “self-splicing fitness (ln)” value by setting is: (30 °C) -3.37 ± 0.28; (37 °C) -1.71 ± 0.23.

As to AGUAAGCAAUAUUACGGAGA, the “self-splicing fitness (ln)” value (30 °C) was -3.47 ± 0.32 and the “self-splicing fitness (ln)” value (37 °C) was -2.44 ± 0.42.

GGCAAGCAAUAUUACGCACC: the “self-splicing fitness (ln)” value runs as follows: (30 °C) -2.15 ± 0.32; (37 °C) -2.31 ± 0.24.

Regarding AUGAAGCAAUAUUACGUGUA, the “self-splicing fitness (ln)” value is, setting by setting: (30 °C) -1.75 ± 0.082; (37 °C) -0.686 ± 0.093.

Turning to GCUCAGCAAUAUUACGAGGC, the “self-splicing fitness (ln)” value (30 °C) is -4.34 ± 0.42 and the “self-splicing fitness (ln)” value (37 °C) is -1.42 ± 0.19.

For UCCAAGCAAUAUUACGUUGG, the “self-splicing fitness (ln)” value is, setting by setting: (30 °C) -2.99 ± 0.11; (37 °C) -1.89 ± 0.14.

With AAGUAGCAAUAUUACGGGGA, the “self-splicing fitness (ln)” value reads like this: (30 °C) -2.42 ± 0.18; (37 °C) -1.74 ± 0.17.

As for UAUAAGCAAUAUUACGGGGG, the “self-splicing fitness (ln)” value was -3.88 ± 0.29 (30 °C) and -3.09 ± 0.24 (37 °C).

As to GUCUAGCAAUAUUACGUAGG, the “self-splicing fitness (ln)” value runs as follows: (30 °C) -0.837 ± 0.14; (37 °C) -0.942 ± 0.21.

Turning to UUCUAGCAAUAUUACGCAGG, under “30 °C”, the “self-splicing fitness (ln)” value was -3.52 ± 0.4.

As for UAAAAGCAAUAUUACGGUAA, the “self-splicing fitness (ln)” value was -1.94 ± 0.14 (30 °C) and -0.97 ± 0.098 (37 °C).

With UUGAAGCAAUAUUACGCACU, the “self-splicing fitness (ln)” value by setting is: (30 °C) -0.156 ± 0.091; (37 °C) 0.362 ± 0.1.

For GUAUAGCAAUAUUACGUUUC, the “self-splicing fitness (ln)” value is, setting by setting: (30 °C) -3.37 ± 0.25; (37 °C) -2.36 ± 0.33.

For GUUAAGCAAUAUUACGUUCG, the “self-splicing fitness (ln)” value reads like this: (30 °C) -1.6 ± 0.13; (37 °C) -0.376 ± 0.16.

On to UCCCAGCAAUAUUACGGCUU, for which the “self-splicing fitness (ln)” value (30 °C) was -2.62 ± 0.14 and the “self-splicing fitness (ln)” value (37 °C) is -1.65 ± 0.17.

As for UCUCAGCAAUAUUACGAGUG, the “self-splicing fitness (ln)” value is, setting by setting: (30 °C) -0.746 ± 0.068; (37 °C) 0.292 ± 0.086.

Consider GUAGAGCAAUAUUACGCGAU, for which the “self-splicing fitness (ln)” value was -3.22 ± 0.2 (30 °C) and 0.14 ± 0.16 (37 °C).

In the case of GGCGAGCAAUAUUACGUCAU, the “self-splicing fitness (ln)” value is -2.45 ± 0.14 (30 °C) and -1.76 ± 0.11 (37 °C).

Turning to GCAAAGCAAUAUUACGUAAG, the “self-splicing fitness (ln)” value (30 °C) is -1.92 ± 0.1 and the “self-splicing fitness (ln)” value (37 °C) is -0.569 ± 0.11.

On to CGUGAGCAAUAUUACGGGCA, for which the “self-splicing fitness (ln)” value is -1.6 ± 0.12 (30 °C) and -1.63 ± 0.16 (37 °C).

With UCUAAGCAAUAUUACGCAAG, the “self-splicing fitness (ln)” value was -2.85 ± 0.4 (30 °C) and -1.86 ± 0.34 (37 °C).

In the case of GGUUAGCAAUAUUACGACGG, the “self-splicing fitness (ln)” value runs as follows: (30 °C) -2.32 ± 0.17; (37 °C) -1.33 ± 0.22.

With AAACAGCAAUAUUACGGGGU, the “self-splicing fitness (ln)” value is -3.07 ± 0.11 (30 °C) and -2.6 ± 0.14 (37 °C).
